Source: the supplement of paper PMC5998384

Legend:
HeLa Kyoto [1] = assay: solubility in G1/S (NP-40 vs SDS abundance) (log2 ratio); higher = more soluble; conditions: cell cycle stage: G1/S
HeLa Kyoto [2] = assay: solubility change mitosis vs G1/S (difference of NP-40 vs SDS log2 ratios) (log2 ratio difference); higher = more soluble in mitosis
HeLa Kyoto [3] = assay: melting temperature (median over replicates), in situ; higher = more thermally stable
HeLa Kyoto [4] = assay: thermal stability score vs G1/S (z-score of summed log2 fold changes over temperatures); higher = more thermally stable than in G1/S
[5] = cell cycle stage: early G1 (4.5 h after nocodazole release)
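For melting temperature (median over replicates), in situ in this document: HeLa Kyoto cells synchronized by double thymidine or nocodazole block, proteins quantified by TMT10plex mass spectrometry, three independent biological replicates.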
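For solubility change mitosis vs G1/S (difference of NP-40 vs SDS log2 ratios) in this document: synchronized HeLa Kyoto cells (double thymidine block for G1/S, nocodazole release for mitosis), protein amounts in NP-40 versus SDS lysates quantified by mass spectrometry, three biological replicates.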
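For solubility in G1/S (NP-40 vs SDS abundance) in this document: HeLa Kyoto cells arrested at G1/S by double thymidine block, proteins quantified by TMT10plex mass spectrometry in mild NP-40 versus SDS extracts, three biological replicates.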
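For thermal stability score vs G1/S (z-score of summed log2 fold changes over temperatures) in this document: synchronized HeLa Kyoto cells, proteins quantified by TMT10plex mass spectrometry, three biological replicates, mitosis taken 0.5 h after nocodazole release, G1/S directly after double thymidine block.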

PGRMC1, sequence (chain, as listed by the source): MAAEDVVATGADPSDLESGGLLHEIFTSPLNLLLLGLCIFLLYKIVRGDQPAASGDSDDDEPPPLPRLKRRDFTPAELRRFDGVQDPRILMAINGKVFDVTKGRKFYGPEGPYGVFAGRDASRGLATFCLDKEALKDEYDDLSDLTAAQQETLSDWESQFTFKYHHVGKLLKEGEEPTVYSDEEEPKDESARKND

Substance | solubility in G1/S (log2) (HeLa Kyoto [1]) | solubility change mitosis (log2) (HeLa Kyoto [2]) | melting temperature (HeLa Kyoto [3]; cell cycle stage: G1/S) [°C] | melting temperature (HeLa Kyoto [3]; cell cycle stage: mitosis) [°C] | thermal stability score (HeLa Kyoto [4]; [5]) | thermal stability score (HeLa Kyoto [4]; cell cycle stage: mitosis)
MAAEDELQLPRLPELFETGRQLLDEVEVATEPAGSRIVQEKVFKGLDLLEKAAEMLSQLDLFSRNEDLEEIASTDLKYLLVPAFQGALTMKQVNPSKRLDHLQRAREHFINYLTQCHCYHVAEFELPKTMNNSAENHTANSSMAYPSLVAMASQRQAKIQRYKQKKELEHRLSAMKSAVESGQADDERVREYYLLHLQRWIDISLEEIESIDQEIKILRERDSSREASTSNSSRQERPPVKPFILTRNMAQAKVFGAGYPSLPTMTVSDWYEQHRKYGALPDQGIAKAAPEEFRKAAQQQEEQEEKEEEDDEQTLHRAREWDDWKDTHPRGYGNRQNMG [IGBP1] | 0.454 | 0.103 | 50.7 | 51.4 | -0.476 | -0.0586
HADHA | 0.196 | -0.133 | 50.8 | 50.9 | -1.31 | 0.108
MAALTLRGVRELLKRVDLATVPRRHRYKKKWAATEPKFPAVRLALQNFDMTYSVQFGDLWPSIRVSLLSEQKYGALVNNFAAWDHVSAKLEQLSAKDFVNEAISHWELQSEGGQSAAPSPASWACSPNLRCFTFDRGDISRFPPARPGSLGVMEYYLMDAASLLPVLALGLQPGDIVLDLCAAPGGKTLALLQTGCCRNLAANDLSPSRIARLQKILHSYVPEEIRDGNQVRVTSWDGRKWGELEGDTYDRVLVDVPCTTDRHSLHEEENNIFKRSRKKERQILPVLQVQLLAAGLLATKPGGHVVYSTCSLSHLQNEYVVQGAIELLANQYSIQVQVEDLTHFRRVFMDTFCFFSSCQVGELVIPNLMANFGPMYFCKMRRLT [NSUN4] | -0.195 | 0.115 | 51.7 | 51.9 | 0.266 | 0.044
MPGFDYKFLEKPKRRLLCPLCGKPMREPVQVSTCGHRFCDTCLQEFLSEGVFKCPEDQLPLDYAKIYPDPELEVQVLGLPIRCIHSEEGCRWSGPLRHLQGHLNTCSFNVIPCPNRCPMKLSRRDLPAHLQHDCPKRRLKCEFCGCDFSGEAYESHEGMCPQESVYCENKCGARMMRRLLAQHATSECPKRTQPCTYCTKEFVFDTIQSHQYQCPRLPVACPNQCGVGTVAREDLPGHLKDSCNTALVLCPFKDSGCKHRCPKLAMARHVEESVKPHLAMMCALVSRQRQELQELRRELEELSVGSDGVLIWKIGSYGRRLQEAKAKPNLECFSPAFYTHKYGYKLQVSAFLNGNGSGEGTHLSLYIRVLPGAFDNLLEWPFARRVTFSLLDQSDPGLAKPQHVTETFHPDPNWKNFQKPGTWRGSLDESSLGFGYPKFISHQDIRKRNYVRDDAVFIRAAVELPRKILS [TRAF4] | -0.439 | 0.124 | 51.3 | 51.8 | 0.266 | 0.814
MAAWGCVAALGAARGLCWRAARAAAGLQGRPARRCYAVGPAQSPPTFGFLLDIDGVLVRGHRVIPAALKAFRRLVNSQGQLRVPVVFVTNAGNILQHSKAQELSALLGCEVDADQVILSHSPMKLFSEYHEKRMLVSGQGPVMENAQGLGFRNVVTVDELRMAFPLLDMVDLERRLKTTPLPRNDFPRIEGVLLLGEPVRWETSLQLIMDVLLSNGSPGAGLATPPYPHLPVLASNMDLLWMAEAKMPRFGHGTFLLCLETIYQKVTGKELRYEGLMGKPSILTYQYAEDLIRRQAERRGWAAPIRKLYAVGDNPMSDVYGANLFHQYLQKATHDGAPELGAGGTRQQQPSASQSCISILVCTGVYNPRNPQSTEPVLGGGEPPFHGHRDLCFSPGLMEASHVVNDVNEAVQLVFRKEGWALE [CECR5] | 0.262 | -0.159 | 50.8 | 50.2 | 0.291 | 1.28
SDE2 | 0.563 | 0.0378 | 49.5 | 49.5 | 2.03 | 1.98
MITSELPVLQDSTNETTAHSDAGSELEETEVKGKRKRGRPGRPPSTNKKPRKSPGEKSRIEAGIRGAGRGRANGHPQQNGEGEPVTLFEVVKLGKSAMQSVVDDWIESYKQDRDIALLDLINFFIQCSGCRGTVRIEMFRNMQNAEIIRKMTEEFDEDSGDYPLTMPGPQWKKFRSNFCEFIGVLIRQCQYSIIYDEYMMDTVISLLTGLSDSQVRAFRHTSTLAAMKLMTALVNVALNLSIHQDNTQRQYEAERNKMIGKRANERLELLLQKRKELQENQDEIENMMNSIFKGIFVHRYRDAIAEIRAICIEEIGVWMKMYSDAFLNDSYLKYVGWTLHDRQGEVRLKCLKALQSLYTNRELFPKLELFTNRFKDRIVSMTLDKEYDVAVEAIRLVTLILHGSEEALSNEDCENVYHLVYSAHRPVAVAAGEFLHKKLFSRHDPQAEEALAKRRGRNSPNGNLIRMLVLFFLESELHEHAAYLVDSLWESSQELLKDWECMTELLLEEPVQGEEAMSDRQESALIELMVCTIRQAAEAHPPVGRGTGKRVLTAKERKTQIDDRNKLTEHFIITLPMLLSKYSADAEKVANLLQIPQYFDLEIYSTGRMEKHLDALLKQIKFVVEKHVESDVLEACSKTYSILCSEEYTIQNRVDIARSQLIDEFVDRFNHSVEDLLQEGEEADDDDIYNVLSTLKRLTSFHNAHDLTKWDLFGNCYRLLKTGIEHGAMPEQIVVQALQCSHYSILWQLVKITDGSPSKEDLLVLRKTVKSFLAVCQQCLSNVNTPVKEQAFMLLCDLLMIFSHQLMTGGREGLQPLVFNPDTGLQSELLSFVMDHVFIDQDEENQSMEGDEEDEANKIEALHKRRNLLAAFSKLIIYDIVDMHAAADIFKHYMKYYNDYGDIIKETLSKTRQIDKIQCAKTLILSLQQLFNELVQEQGPNLDRTSAHVSGIKELARRFALTFGLDQIKTREAVATLHKDGIEFAFKYQNQKGQEYPPPNLAFLEVLSEFSSKLLRQDKKTVHSYLEKFLTEQMMERREDVWLPLISYRNSLVTGGEDDRMSVNSGSSSSKTSSVRNKKGRPPLHKKRVEDESLDNTWLNRTDTMIQTPGPLPAPQLTSTVLRENSRPMGDQIQEPESEHGSEPDFLHNPQMQISWLGQPKLEDLNRKDRTGMNYMKVRTGVRHAVRGLMEEDAEPIFEDVMMSSRSQLEDMNEEFEDTMVIDLPPSRNRRERAELRPDFFDSAAIIEDDSGFGMPMF [STAG1] | -0.226 | 0.0363 | 52 | 50.6 | -0.0959 | -1.71
MGKVNVAKLRYMSRDDFRVLTAVEMGMKNHEIVPGSLIASIASLKHGGCNKVLRELVKHKLIAWERTKTVQGYRLTNAGYDYLALKTLSSRQVVESVGNQMGVGKESDIYIVANEEGQQFALKLHRLGRTSFRNLKNKRDYHKHRHNVSWLYLSRLSAMKEFAYMKALYERKFPVPKPIDYNRHAVVMELINGYPLCQIHHVEDPASVYDEAMELIVKLANHGLIHGDFNEFNLILDESDHITMIDFPQMVSTSHPNAEWYFDRDVKCIKDFFMKRFSYESELFPTFKDIRREDTLDVEVSASGYTKEMQADDELLHPLGPDDKNIETKEGSEFSFSDGEVAEKAEVYGSENESERNCLEESEGCYCRSSGDPEQIKEDSLSEESADARSFEMTEFNQALEEIKGQVVENNSVTEFSEEKNRTENYNRQDGQRVQGGVPAGSDEYEDECPHLIALSSLNREFRPFRDEENVGAMNQYRTRTLSITSSGSAVSCSTIPPELVKQKVKRQLTKQQKSAVRRRLQKGEANIFTKQRRENMQNIKSSLEAASFWGE [RIOK2] | -0.263 | -0.21 | 52.5 | 52 | -0.571 | -0.171
MEPVGCCGECRGSSVDPRSTFVLSNLAEVVERVLTFLPAKALLRVACVCRLWRECVRRVLRTHRSVTWISAGLAEAGHLEGHCLVRVVAEELENVRILPHTVLYMADSETFISLEECRGHKRARKRTSMETALALEKLFPKQCQVLGIVTPGIVVTPMGSGSNRPQEIEIGESGFALLFPQIEGIKIQPFHFIKDPKNLTLERHQLTEVGLLDNPELRVVLVFGYNCCKVGASNYLQQVVSTFSDMNIILAGGQVDNLSSLTSEKNPLDIDASGVVGLSFSGHRIQSATVLLNEDVSDEKTAEAAMQRLKAANIPEHNTIGFMFACVGRGFQYYRAKGNVEADAFRKFFPSVPLFGFFGNGEIGCDRIVTGNFILRKCNEVKDDDLFHSYTTIMALIHLGSSK [FBXO22] | -0.097 | -0.22 | 55.1 | 53.1 | -9.18 | -9.79
PGRMC1 | 0.15 | 0.219 | 53.1 | 52.8 | -0.433 | -0.0697
MEGISNFKTPSKLSEKKKSVLCSTPTINIPASPFMQKLGFGTGVNVYLMKRSPRGLSHSPWAVKKINPICNDHYRSVYQKRLMDEAKILKSLHHPNIVGYRAFTEANDGSLCLAMEYGGEKSLNDLIEERYKASQDPFPAAIILKVALNMARGLKYLHQEKKLLHGDIKSSNVVIKGDFETIKICDVGVSLPLDENMTVTDPEACYIGTEPWKPKEAVEENGVITDKADIFAFGLTLWEMMTLSIPHINLSNDDDDEDKTFDESDFDDEAYYAALGTRPPINMEELDESYQKVIELFSVCTNEDPKDRPSAAHIVEALETDV [PBK] | 0.0996 | 0.0797 | 47.7 | 47.6 | 1.05 | 3.4
DMD | 0.235 | -0.235 | 49.9 | 50.2 | 0.00802 | 0.278
MAKRSRGPGRRCLLALVLFCAWGTLAVVAQKPGAGCPSRCLCFRTTVRCMHLLLEAVPAVAPQTSILDLRFNRIREIQPGAFRRLRNLNTLLLNNNQIKRIPSGAFEDLENLKYLYLYKNEIQSIDRQAFKGLASLEQLYLHFNQIETLDPDSFQHLPKLERLFLHNNRITHLVPGTFNHLESMKRLRLDSNTLHCDCEILWLADLLKTYAESGNAQAAAICEYPRRIQGRSVATITPEELNCERPRITSEPQDADVTSGNTVYFTCRAEGNPKPEIIWLRNNNELSMKTDSRLNLLDDGTLMIQNTQETDQGIYQCMAKNVAGEVKTQEVTLRYFGSPARPTFVIQPQNTEVLVGESVTLECSATGHPPPRISWTRGDRTPLPVDPRVNITPSGGLYIQNVVQGDSGEYACSATNNIDSVHATAFIIVQALPQFTVTPQDRVVIEGQTVDFQCEAKGNPPPVIAWTKGGSQLSVDRRHLVLSSGTLRISGVALHDQGQYECQAVNIIGSQKVVAHLTVQPRVTPVFASIPSDTTVEVGANVQLPCSSQGEPEPAITWNKDGVQVTESGKFHISPEGFLTINDVGPADAGRYECVARNTIGSASVSMVLSVNVPDVSRNGDPFVATSIVEAIATVDRAINSTRTHLFDSRPRSPNDLLALFRYPRDPYTVEQARAGEIFERTLQLIQEHVQHGLMVDLNGTSYHYNDLVSPQYLNLIANLSGCTAHRRVNNCSDMCFHQKYRTHDGTCNNLQHPMWGASLTAFERLLKSVYENGFNTPRGINPHRLYNGHALPMPRLVSTTLIGTETVTPDEQFTHMLMQWGQFLDHDLDSTVVALSQARFSDGQHCSNVCSNDPPCFSVMIPPNDSRARSGARCMFFVRSSPVCGSGMTSLLMNSVYPREQINQLTSYIDASNVYGSTEHEARSIRDLASHRGLLRQGIVQRSGKPLLPFATGPPTECMRDENESPIPCFLAGDHRANEQLGLTSMHTLWFREHNRIATELLKLNPHWDGDTIYYETRKIVGAEIQHITYQHWLPKILGEVGMRTLGEYHGYDPGINAGIFNAFATAAFRFGHTLVNPLLYRLDENFQPIAQDHLPLHKAFFSPFRIVNEGGIDPLLRGLFGVAGKMRVPSQLLNTELTERLFSMAHTVALDLAAINIQRGRDHGIPPYHDYRVYCNLSAAHTFEDLKNEIKNPEIREKLKRLYGSTLNIDLFPALVVEDLVPGSRLGPTLMCLLSTQFKRLRDGDRLWYENPGVFSPAQLTQIKQTSLARILCDNADNITRVQSDVFRVAEFPHGYGSCDEIPRVDLRVWQDCCEDCRTRGQFNAFSYHFRGRRSLEFSYQEDKPTKKTRPRKIPSVGRQGEHLSNSTSAFSTRSDASGTNDFREFVLEMQKTITDLRTQIKKLESRLSTTECVDAGGESHANNTKWKKDACTICECKDGQVTCFVEACPPATCAVPVNIPGACCPVCLQKRAEEKP [PXDN] | -0.0223 | -0.103 | 54 | 54.5 | 3.4 | 3.61
